Measurements reported in the nanobody polyreactivity screen of Harvey et al. (2022).

Assay: yeast display, Sf9 membrane polyspecificity reagent, FACS + sequencing; frameworks hold sequencing errors
Procedure, shortened: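 Nanobodies came from a synthetic yeast display library in Saccharomyces cerevisiae BJ5465, induced with galactose for 36–48 hours and stained for 1 hour at 4 °C with 10% biotinylated, detergent-solubilized Sf9 membrane reagent. Cells were enriched on streptavidin microbeads and then FACS-sorted, with low and high (top ~1%) gates set on anti-HA fluorescence for expression and streptavidin fluorescence for reagent binding. Each polyreactivity label reflects the gate a clone came from. Genes were amplified by colony PCR, sequenced by MiSeq 2 × 250 and filtered by CDR length.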

Row | Sequence | polyreactivity (PSR sort gate)
1 | QVQLEESVGGLVQAGGSLRLSCAASGSILLWNAMGSYREAPGKERELVAAISSSGTSTYYADSVKGLFTISRDNAKNTVYLQMNSEKPEDNAVYYCAADQSEFYAIYYYWGQGTQVTVSS | low polyreactivity
2 | QVQLEESVGGLVQAGGSLRLSCAASVFIFYKKNMGLYRQAPGKERELVAAITDGDHTNYADSVKGRFTISRDNAKNTVYLQMNSLKPEDTAVYYCAADYAWNYAFGYWGQGTQVTVSS | low polyreactivity
3 | QVQLEESWGCLVQAGGSLRLSCAASGYTFVNYAMGWSRQAPGKEREFVAAISRSGGSTYYADSVKGRFTISRDNAKNTDYLQMHSLKPEDTAVYYCALRGYPPYKYYYWGQGTQVTVSS | high polyreactivity
4 | QVQLEETGGGLVQAGGSLLLSCEASGLTIHPYAMGWYRHAPGKERELVAAISSRGTSTYYADSVKWRFTISRDTAKNTVYLQMNSLKPEDTAVYYCAARHGPRAEAMYYWGQGPQVTVSS | high polyreactivity
5 | QVQLEETGGGLVQAGGSLRLSCSASGRTLYYYAMGWYRQAHGKDRELVAAISKRGGSTYYADSVQGRFTISRDNAKNTVYLQINSLKPVDTAVFYCAASSGLDSWGQGTQVTVSS | high polyreactivity
6 | QVQLEETGRGLVQAGGSLRISSAASGGIFAHYVMGWYRQAPGKARELVAAISASGGSTYYADSVKGRFTISRDNAKNTVYLQMNSLKPEDTAVYYCAAYYLAWFADRYKTVGSAMDYWGQVTQVTVSS | low polyreactivity
7 | QVQLEGSGGGLVQAGGSLRLSCAASGSIFSTNAMGWYRKAPGKERELVASISSGGGSTYYADSVKGRFTISRDTAKKTVYLQMNSLKPEDTAVYYCARRIGHGSRPYWLETWRYPYEYWGQGTQVTVSS | low polyreactivity
8 | QVQLEVSGGGLDQAGGSLRLSCAASGFTFVYYVMGCYRQAPGKQWELVAAINAGGGSTYYADSVKGRFTISRDNAKNTVYLQMNSLKPEDTAVYYCNARVRVRLGRNWSSYYYWGQGTQVTVSS | high polyreactivity
9 | QVQLGESGGALVQAGGSLRLSCAASGSIYWYKDMGWYTEATGKEMELVAAINSGGDTNYADSVKGRFTISRDNAKNTVYLQMNSLKPEDTAVFYCAATLLSRFYLSNRRSAYNYWGQGTLVTVSS | high polyreactivity
10 | QVQLGESGGCLGQAGGSLRLSCAASGYTFPYNVMGWYRQAPGKERELDAAITSSGGSTYYADSVKGRFTISRDNAKNTVYLQMNRLKPEDTAVYYCNAYPSSSLFDYWGQGTQVTVSS | low polyreactivity
11 | QVQLGESGGCLVQAGGSLRLICAASGFIFDRYVMGWYRQAPGKESELVAAINRSGGSTYYADSVKGRFTISRDNAKNTVYLQMNSLKRVDTAVYYCADVRPGSFTVEGYYCGQGTQVTVSS | high polyreactivity
12 | QVQLGESGGGLLQAGGSLRLICAASGSIFSPYDMGWYRHAPGKERVLVAAITGSGASTYYADSVKGRFSISRDNAKNTVSLEMNSLKPEETAVYYCAAVSKYYTTWTSGYWGQGTQVTLSS | low polyreactivity
13 | QVQLGESGGGLVQAGGILRLSCAASGSTFFYYAMGWYRQAPGKERELVATINYNGGSTSYADSVKGRFTFSRDNAKNTLYLQMISLIPEDTAVYYCAADLWVWYYKPYDYWGQGTQVTVSS | low polyreactivity
14 | QVQLGESGGGLVQAGGSLLLSSAASGFIFHNYPMGWYRQAPVKERELVAAISWSGSRTYYADSVKGRFTISRDNAKNSVYLQMNSLKPEDTAVYYCNKAPSWWDVRVPFDYWGQGTQVTVSS | low polyreactivity
15 | QVQLGESGGGLVQAGGSLRLICAASGFTFYDYAMGWYRQEPGKETEFVAAITRSGSSTYYADSVKGRFTISRDNAKNTVYLQMNSLKPEDTAVYYCAVGPFRRRGHYPTYYRYGYWGQGTQVTVSS | high polyreactivity
16 | QVQLGESGGGLVQAGGSLRLSCAASGFIFRYYGMGWYRQAPGKERELVAAISRGGGSTYYADSVKGRFTISRDNAKNTVYLQMNSLKPEDTAVYYCATRRDPDYDYWGQGTQVTVSS | high polyreactivity
17 | QVQLGESGGGLVQAGGSLRLSCAASGFTFVHNAMGWYRQAPGKERELVAAISSSGGRTYYADSVKGRFTISRDNAKNTVYLQMNSLKPDDTAVYYCATVNRYGPSYGYWGQGTHVTVSS | high polyreactivity
18 | QVQLGESGGGLVQAGGSLRLSCAASGFTFYTYAMGLYRQAPGKERELVATISSGGRTNYADSVKGRFTISRDNAKNTVYLQMNSLKPEDPAVFYCNASPPTLEGYWGQGTQVTVSS | low polyreactivity
19 | QVQLGESGGGLVQAGGSLRLSCAASGIIYKYAMGWYRQAPGQERELVATITWSDCSTYYADSVKGRFTISRDNAKNTVSLQMNSLKPEDTAVYYCAADDYYGYDYWGQGTQVTVSS | low polyreactivity
20 | QVQLGESGGGLVQAGGSLRLSCAASGITFGRKTMGWYRQAPGKERELVAAIDSGGNTYADSVKGRFTISRDNAKNTVYLQMNSLKPEDTAVYYCAVDGGEFSSYGYWGQGTQVTVSS | low polyreactivity
21 | QVQLGESGGGLVQAGGSLRLSCAASGITFWSYAMGLYRQAPGKERELVATIRWSGGGTYYADSVKGRFTISRDNAKNTVYLQMNSLKPEDTAVYYCNADDYGHPPYDYWGQGTQVTVSS | high polyreactivity
22 | QVQLGESGGGLVQAGGSLRLSCAASGRIFLRNVMGWYRPAPGKERELVAAISLSGASTYYADSVKGRFTISRDNAKNTVYLQMNSLKPEDTAVYYCAADITILSDYWGQGTQVTVSS | low polyreactivity

Row | Sequence | polyreactivity (PSR sort gate)
23 | QVQLGESGGGLVQAGGSLRLSCAASGRIFTSYPMGWYRQAPGKERELVAAISRSGGSTYYADSVKGRFTISRDNAKNTVYLQMNSLKPEDTAVYYCAKARVVAGYDYWGQGTQVTVSS | high polyreactivity
24 | QVQLGESGGGLVQAGGSLRLSCAASGRIFVKYAMGWYRQAPGKERELVAAISKSGGSTYYADSVKGRFTISRDNAKKTVYLQMNSLKPEDTAVYYCATRSREQYSVSYRLDFWGQGTQVTVSS | low polyreactivity
25 | QVQLGESGGGLVQAGGSLRLSCAASGRTFYSYAMGWYRHAPWKERELVAAISASGGRTYYADSVKGRFTISRDNEKNTVYLQMNSLKPEDTAVYYCAAYPWYRMWGQGTQVTVSS | high polyreactivity
26 | QVQLGESGGGLVQAGGSLRLSCAASGRTFYVYAMGWYRQAPGKERELVASIRRSGGITYYADYVKGRFTISRDNAKNTVYLLMNSLKPEDSAVYYCNARRGPGRREYDYWGQGTQVTVSS | high polyreactivity
27 | QVQLGESGGGLVQAGGSLRLSCAASGRTLSYYARGWYRHAPGKEREFVAAITGSGGSTYYADSVKGRFTISRDNAKNTVYLQMHSLQPADTAVYYCNAKGLGVFTVEYYYWGQGTQVTVSS | low polyreactivity
28 | QVQLGESGGGLVQAGGSLRLSCAASGSIFAFNTMGWYRQAPGKERELVAAITWGGGSTYYADSVKGRFTISRDNAKNTVYLQMNSLKPEDTAVYYCAARRSGRTRYYWGQGTQVTVSS | high polyreactivity
29 | QVQLGESGGGLVQAGGSLRLSCAASGSIFGHYAMGWYRQAPGKERELVAAISWSGTSTYYADSVKGRFTISRDNAKNTVYFQMNTLKPEDTAVYYCNVVYRVVSPSGGGYWGQGTQVTVSS | high polyreactivity
30 | QVQLGESGGGLVQAGGSLRLSCAASGSIFRGYTMGWYRQAPGKERELVAGISFSGTRTYYADSVKGRFTISRDNAKNTVYLQMNSLKPEDTAVYYCAAVSPYGSQYGYWGQGTQVTVSS | high polyreactivity
31 | QVQLGESGGGLVQAGGSLRLSCAASGSIFRYYVMGWYRQAPGKERELVATISRDSSRNYADSVKGRFTISRDNAKNTVYLQMNSLKPEDTAVYYCNTEGGVIRSYWYDYWGQGTQVTVSS | low polyreactivity
32 | QVQLGESGGGLVQAGGSLRLSCAASGSILRSYAMGWYRQAPGKERELVAVINGSGDRTYYADSVKGRFTISRDTAKNTVYLQMNSLKPEDTAVYYCNVVRRSPGDYSYYYWGKGTQVTVSS | low polyreactivity
33 | QVQLGESGGGLVQAGGSLRLSCAASGSIYVNAMGWYRQAPRKERELVAVISKSGGSTYYADSVKGRFTISRDNAKNTVYLQMNSLKPEETAVYYCAASRPSPGPRYGYWGQGTQVTVSS | high polyreactivity
34 | QVQLGESGGGLVQAGGSLRLSCAASGSTFESYAMGWYRPAPGKEWELVAAINGGGRTYYADSVKGRFTISRDTAKNTVYLQMNSLNPEDTAVYYCAAEYRRGYYWPWGWEYYWGQGTQVTVSS | low polyreactivity
35 | QVQLGESGGGLVQAGGSLRLSCAASGSTFHPHAMGWYRQAPGKERELVATIRRTGDSTYDADSVKGRFTISRDHAKNTVNLQMNSLKPEDTAVYYCAARYYAESYRYYYWGQGTQGTVSS | high polyreactivity
36 | QVQLGESGGGLVQAGGSLRLSCAASGSTFNRYAMGWYIQAPGKERELVAAITVRGNTYYADSVKGRFTISRDNAKNTVDVQMNSVKPEDTAVYYCNAVSASPSYVYRPYFKRGYWGQGTQGTVSS | high polyreactivity
37 | QVQLGESGGGLVQAGGSLRLSCAASGSTFNRYAMGWYRQAPGKERELVAAISFSGGRTYYADSVKGRFTISRDNAKNTVYLQMNSLKPEDSAVYYCTKVVYGYFTRAYTYNYWGQGTQVTVSS | high polyreactivity
38 | QVQLGESGGGLVQAGGSLRLSCAASGSTFPFNAMGWYRQAPGKERELVAAITLRGGRTYYADSVKGRFTISRDNAKNTVYLQMNSMKPEDTAVYYCAARHNPYRYYHWGQGTQVTVSS | high polyreactivity
39 | QVQLGESGGGLVQAGGSLRLSCAGTGIIFARYVMGWEREAPGQDRELVAAIRRSGHSTYADSVKGRFTISRYNATNTLYLHMNSLKPEETAVYYCNAKGWISGRYSPYYRFDYWGQGTQVTVSS | high polyreactivity
40 | QVQLGESGGGLVQAGGSLRLSCAPSGSIFGYYSMGWYRQAPGKERELVATITLSDDSTYYAVSVKGRFTISRDNAKITVYLQMNSLKPEDTAVYYCAAVRITRYQWDRSVGSGDYWGQGTQVTVSS | high polyreactivity
41 | QVQLGESGGGLVQAGGSLRLSFAASGRISKRNDRGWSRQAPGKERELVAGITSTGSTSYAHSVKGRFTISRDNAKKTVYLQMNSLKPEDTAVYYCAARGQATYNWGQGTQVTVSS | high polyreactivity
42 | QVQLGESGGGLVQAGGSVRLSCAASGRTFDFYALGWYRQAPGKERELVAAISSRGGSTYYADSVKGRFTISRDNAKNTVYLQMNSLKPEDTAVYYGAKDLGYRGRYNYWGQGTQVTVSS | low polyreactivity
43 | QVQLGESVGGLVQAGGSLRLSCAASGFTSRKNAMGWYRQAPGKERELVAAITQSSGRTYYADSVKGRFTISRVNAKNTVYLQMNRLKPEDTAVYYCAARRGGEDDYWGQGTQVTVSS | low polyreactivity
